IntAct's records for PubMed 18854156

B1: Sporulation initiation inhibitor protein Soj (Bacillus subtilis), P37522 (parent)
chain: MGKIIAITNQKGGVGKTTTSVNLGACLAYIGKRVLLVDIDPQGNATSGLGIEKADVEQCVYDILVDDADVIDIIKATTVENLDVIPATIQLAGAEIELVPTISREVRLKRALEAVKQNYDYIIIDCPPSLGLLTINALTASDSVVIPVQCEYYALEGLSQLLNTVRLVQKHLNTDLMIEGVLLTMLDARTNLGIQVIEEVKKYFRDKVYKTVIPRNVRLSEAPSHGKPIILYDPRSRGAEVYLDLAKEVAANG

Variants of: B1
Conditions: with dnaa_bacsu dnaA

Q: With MGKIIAITNQKVGVGKTTTSVNLGACLAYIGKRVLLVDIDPQGNATSGLGIEKADVEQCVYDILVDDADVIDIIKATTVENLDVIPATIQLAGAEIELVPTISREVRLKRALEAVKQNYDYIIIDCPPSLGLLTINALTASDSVVIPVQCEYYALEGLSQLLNTVRLVQKHLNTDLMIEGVLLTMLDARTNLGIQVIEEVKKYFRDKVYKTVIPRNVRLSEAPSHGKPIILYDPRSRGAEVYLDLAKEVAANG [G12V] as the variant, how does the “effect of a mutation on the interaction” value read?
A: Its value is “increasing interaction”.

Q: Which “effect of a mutation on the interaction” value does the source give for MGKIIAITNQKGGVGATTTSVNLGACLAYIGKRVLLVDIDPQGNATSGLGIEKADVEQCVYDILVDDADVIDIIKATTVENLDVIPATIQLAGAEIELVPTISREVRLKRALEAVKQNYDYIIIDCPPSLGLLTINALTASDSVVIPVQCEYYALEGLSQLLNTVRLVQKHLNTDLMIEGVLLTMLDARTNLGIQVIEEVKKYFRDKVYKTVIPRNVRLSEAPSHGKPIILYDPRSRGAEVYLDLAKEVAANG [K16A] here?
A: Its value is “increasing interaction”.

Variants of: B1
Conditions: with dnaa_bacsu dnaA
Remark: another data set of the same source

Q: For MGKIIAITNQKGGVGKTTTSVNLGACLAYIGKRVLLVDIAPQGNATSGLGIEKADVEQCVYDILVDDADVIDIIKATTVENLDVIPATIQLAGAEIELVPTISREVRLKRALEAVKQNYDYIIIDCPPSLGLLTINALTASDSVVIPVQCEYYALEGLSQLLNTVRLVQKHLNTDLMIEGVLLTMLDARTNLGIQVIEEVKKYFRDKVYKTVIPRNVRLSEAPSHGKPIILYDPRSRGAEVYLDLAKEVAANG [D40A], which “effect of a mutation on the interaction” value is on record?
A: Its value is “decreasing interaction”.
